± gives the uncertainty stated by the source.
Test: amyloid nucleation score (Sup35N fusion, yeast selection) (log enrichment); library NNK3; higher = more nucleation; inactive = no reads after selection
Procedure, shortened: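 Three technical output replicates were used for random libraries. Psi-negative yeast expressing peptides of 20 random codons fused to Sup35N were induced with 100 μM copper sulfate for 24 hours and grown 7 days at 30°C on medium lacking adenine and uracil, and input and output plasmid inserts were Illumina-sequenced, excluding sequences with under 100 input reads. The nucleation score is the DiMSum log enrichment of output over input reads, centred on the mode score of non-aggregating sequences.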

Row | Substance | amyloid nucleation score
1 | MVNTM | inactive
2 | LSSIAFCFN | 1.15 ± 0.15
3 | GFVFQVYPQFVWVPPTTSRQ | 1.2 ± 0.18
4 | YCETSLLCCCSIPWYLNCIE | inactive
5 | MWSVLIRSTIDYAVPNWSRF | inactive
6 | YISYLDMDCEFVLS | inactive
7 | CRRRYSDLSIYLLVSNDVIV | inactive
8 | ALLFHLG | inactive
9 | TWNMFDGSVRHFSIWFSARS | inactive
10 | IVMRPSIGMILYSRSPFVYS | inactive
11 | ILVWNLYLT | 2.54 ± 0.053
12 | MYKFCSY | inactive
13 | IGSYIKEGCAITMSRPLFKG | inactive
14 | VYGYELRCDLKGMLLS | inactive
15 | ICSSFDGQ | 0.458 ± 0.2
16 | LKTSNRR | inactive
17 | KSTRF | inactive
18 | NYVTLKSKGITMSWLLLDYR | inactive
19 | RSSVLLS | inactive
20 | CSDCDWSDFFVDVSFWIMVI | inactive
21 | QINMYMVNSRWVTFGIGMLS | 2.37 ± 0.055

Row | Substance | amyloid nucleation score
22 | SKYPRLSCHRIRNVRLGWTL | 1.34 ± 0.085
23 | RFIWIGIWKEGEGLADYSEK | inactive
24 | TVERILC | inactive
25 | HNSRFPSF | 0.338 ± 0.58
26 | NGFLNSINGTVMVQGYSTAF | inactive
27 | SMKSGSATCGIN | inactive
28 | RRFVFVYINVPC | inactive
29 | YSDWELVSGVQLA | inactive
30 | SERKMVSKRTLKGYFRRQVI | inactive
31 | TVFSDFSGSKEMTVTIRRWV | inactive
32 | LRGSRYFWDWAPSYYFVHLR | inactive
33 | YRSRLYNCFFGQFYMSLTNM | 2.07 ± 0.064
34 | KFSLCSVACFNK | 2.88 ± 0.052
35 | VYPSTSTLNYVMLQLTPVNS | inactive
36 | SYVCIIYGNDGSLSRCKDDL | inactive
37 | IVYGKHAWWIRLGSIHVFYY | inactive
38 | NVLCSVRC | inactive
39 | LHVPGLIYF | inactive
40 | LKAYKFMSSNQHTRTAFLGD | inactive
41 | MFEIIGHRRMLFIFYNMCYR | inactive
42 | LRTFKITFRGTVKTRRSLTN | 0.466 ± 0.63

Row | Substance | amyloid nucleation score
43 | WLVGFLFILWV | inactive
44 | APFRMLAFGMWEALMAGSNS | inactive
45 | HCQQGS | inactive
46 | SSFGQICIRSMQYLVGCKWC | inactive
47 | KPTWQKEFVR | 0.969 ± 0.19
48 | YSSLW | inactive
49 | VRHGSMTDCYFLHTLDRREC | inactive
50 | NFSETSAKYHVTSRGFSSSR | 0.456 ± 0.21
51 | SFMRRCNVCIRLYSLAFDMT | 0.542 ± 0.23
52 | GKISTRFRFFSVDETRPTIN | 1.18 ± 0.15
53 | GVLLFLYCYLRGPLYSTTSV | inactive
54 | YLYRFLPVQTRPLMHATSYI | inactive
55 | QFTHTNIFTND | inactive
56 | HLSFDIVV | inactive
57 | CRNCR | inactive
58 | NMNSISYSQPIFRSRTRRRM | inactive
59 | YFFIPVKW | inactive
60 | SFGAKCARGQDSTASVFNNG | -0.33 ± 1.1
61 | LLISGCRSFMMAFSGCL | inactive
62 | VFGET | inactive
63 | FFCFLDYDYSIFEQVNEGLS | inactive

Row | Substance | amyloid nucleation score
64 | NLVSNMVSNAKVDVVVWHVQ | 0.209 ± 0.54
65 | RLYLESVYYFLSRAHRLSID | inactive
66 | LFLYQLLSGHC | inactive
67 | KYTVEVNFLAFLRHIYCTSG | inactive
68 | FFRDQLRRLYLSSALMQFRM | inactive
69 | QTRVTVYSWVPRDYFSQHED | inactive
70 | NVAGM | inactive
71 | LWKVRCSSGHGEIYAYCDMA | inactive
72 | YGAMSAGDMETY | inactive
73 | IIVFLRLSPELCVMCVRR | inactive
74 | HMVSFAERTVSDVGTVNPGQ | inactive
75 | KSVKARYSDSSMW | inactive
76 | GILSKIDVSWWRMAVSVKCW | inactive
77 | LDGFSSKILGMFEEAVVYRM | inactive
78 | GGYQAQTWL | inactive
79 | TIVNL | inactive
80 | LVEHVEVCVIYCSCDCFSSV | 1.86 ± 0.059
81 | ILPGRHCGGASMHTQTCQ | inactive
